Data published in patent US20260109758A1 (BIOSION, published 2026).
Where two headings read alike, the source gives them in different places. Each block holds one binder with its values, some of them ahead of it.

Legend:
[1] = biological target: human IL4Rα on HEK293T-IL4R/STAT6/STAT6-Luc LB2 cells (human, UniProt P24394 26-825); test: cell-based or functional assay
[2] = biological target: T1, human IL4Rα expressed on 293F-IL4Rα cell surface (human, UniProt P24394 26-825); test: flow cytometry on 293F-IL4Rα cells, PE anti-human IgG Fc
T1 construct: whole, on cells; also called human IL4Rα-expressing cells; cell surface IL4R
Method: (§1) Cells were washed twice with FACS buffer, and added with 100 μL/well R-Phycoerythrin AffiniPure Goat Anti-Human IgG, Fey fragment specific (1:1000 dilution in FACS buffer, Jackson Immunoresearch, Cat #109-115-098). Following an incubation of 40 minutes at 4° C. in dark, cells were washed three times and resuspended in FACS buffer. Fluorescence was measured using a Becton Dickinson FACS Canto II-HTS equipment. Data was analyzed using Graphpad Prism and EC₅₀ values were reported.

[3] = biological target: T1, human IL4Rα expressed on 293F-IL4Rα …; test: cell-based blocking FACS on 293F-IL4Rα cells; blocked ligand biotin human IL4
Method: (§2) Then, 1×10⁵ cells per well were incubated in 96 well-plates in 100 μL of serially diluted bispecific antibodies, the positive controls or negative control (starting at 100 nM with a 5-fold serial dilution) in FACS buffer for 40 minutes on ice. […] The plates were washed twice with FACS buffer, and then added and incubated for 40 minutes at 4° C. in dark with 100 μL/well R-Phycoerythrin Streptavidin (1:500 dilution in FACS buffer, Jackson Immunoresearch, Cat #016-110-084). Cells were washed twice and resuspended in FACS buffer. Fluorescence was measured using a Becton Dickinson FACS Canto II-HTS equipment. Data was analyzed using Graphpad Prism and IC₅₀ values were reported.

[4] = biological target: T2, recombinant human IL4Rα-his (human, UniProt P24394 26-231, limits assumed, biotin-labeled in the capture ELISA); test: capture ELISA: antibody captured on anti-human IgG Fc F(ab')2, biotin human IL4Rα-his, SA-HRP
T2 construct: In-house made; not shown: His tag at the C-terminus
Method: (§3) Briefly, 96-well plates were coated with 2 μg/mL AffiniPure F(ab′)₂ Fragment Goat Anti-Human IgG, Fey fragment specific (Jackson Immuno Research, Cat #109-006-008) in PBS, 100 μL/well, overnight at 4° C. Plates were washed once with wash buffer (PBS+0.05% w/v Tween-20, PBST) and then blocked with 200 μL/well blocking buffer (5% w/v non-fatty milk in PBST) for 2 hours at 37° C. […] After a final wash, plates were incubated with 100 μL/well ELISA substrate TMB (Innoreagents, Cat #TMB-S-002). The reaction was stopped in 10 minutes at 25° C. with 50 μL/well 1M H₂SO₄, and the absorbance was read on a microplate reader using dual wavelength mode with 450 nm for TMB and 630 nm as the reference wavelength. Data was analyzed using Graphpad Prism and EC₅₀ values were reported.

[5] = biological target: T2, recombinant human IL4Rα-his; test: SPR Biacore T200; antibody captured on anti-human IgG CM5 chip, IL4Rα-his as analyte; 1:1 Langmuir fit
Method: The goat anti-human IgG (GE healthcare, Cat #BR100839, Human Antibody Capture Kit) was covalently linked to a CM5 chip (carboxy methyl dextran coated chip) via primary amines, using a standard amine coupling kit provided by Biacore (GE healthcare, Pittsburgh, PA, USA). Un-reacted moieties on the biosensor surface were blocked with ethanolamine. Then, purified bispecific antibodies of the disclosure at the concentration of 66.67 nM and the controls at 10 μg/mL, were flowed onto the chip at a flow rate of 10 μL/min. Then, serially diluted recombinant human IL4Rα-his (in house made, IL4Rα of SEQ ID NO: 33 with His tag at C-terminus) in HBS EP buffer (provided by Biacore) was flowed onto the chip at a flow rate of 30 μL/min. The association and dissociation curves were fit to a 1:1 Langmuir binding model using BIAcore evaluation software.

[6] = biological target: T2, recombinant human IL4Rα-his; test: competitive ELISA: coated human IL4Rα-his, antibody titrated; blocked ligand biotin human IL4
Method: (§4) Briefly, 100 μL human IL4Rα-his proteins (prepared in-house, IL4Rα of SEQ ID NO: 33 with C-terminal His tag) were coated on 96-well micro plates at 2 μg/mL in PBS overnight at 4° C. The next day, plates were washed with wash buffer (PBS+0.05% w/v Tween-20, PBST), and blocked with 5% w/v non-fatty milk in PBST for 2 hours at 37° C. Plates were then washed again using wash buffer. Serially diluted bispecific antibodies or the controls (starting at 100 nM with a 5-fold serial dilution) in 2.5% w/v non-fatty milk in PBST, 100 μL per well, were added to the IL4Rα bound plates, and incubated at 37° C. for 40 minutes. […] Plates were washed again using wash buffer. Thereafter, the plates were added with 100 μL/well of streptavidin conjugated HRP (1:10000 dilution in PBST buffer, Jackson Immunoresearch, Cat #016-030-084) and incubated for 40 minutes at 37° C. Plates were washed again using wash buffer. Finally, TMB was added and the reaction was stopped using 1M H₂SO₄, and the absorbance was read at 450 nm. Data was analyzed using Graphpad Prism and IC₅₀ values were reported.

[7] = biological target: T2, recombinant human IL4Rα-his; test: as above; remark: listed apart in the source
Method: as §4

[8] = biological target: T1, human IL4Rα expressed on 293F-IL4Rα …; test: flow cytometry on 293F-IL4Rα cells, PE anti-human IgG Fc; remark: listed apart in the source
Method: as §1

[9] = biological target: T1, human IL4Rα expressed on 293F-IL4Rα …; test: cell-based blocking FACS on 293F-IL4Rα cells; blocked ligand biotin human IL4; remark: listed apart in the source
Method: as §2

[10] = biological target: T2, recombinant human IL4Rα-his; test: capture ELISA: antibody captured on anti-human IgG Fc F(ab')2, biotin human IL4Rα-his, SA-HRP; remark: listed apart in the source
Method: as §3

[11] = biological target: T3, recombinant human TSLP-his (human, UniProt Q969D9 29-159, biotin-labeled in the ELISAs); test: SPR Biacore; TSLP-his amine-coupled to CM5 chip, antibody as analyte; 1:1 Langmuir fit
T3 construct: In-house made; not shown: His tag at the C-terminus
Method: Un-reacted moieties on the biosensor surface were blocked with ethanolamine. Then, serially diluted purified bispecific antibodies and the controls (2-fold serial dilution in HBS-EP⁺ buffer starting at 100 nM) were respectively flowed onto the chip at a flow rate of 30 μL/min. The antigen-antibody association kinetics was followed for 4 minutes and the dissociation kinetics was followed for 13 minutes.

[12] = biological target: T3, recombinant human TSLP-his; test: capture ELISA: antibody captured on anti-human IgG Fc F(ab')2, biotin human TSLP-his, SA-HRP
Method: (§5) Briefly, 96-well micro plates were coated with 100 μL 2 μg/mL AffiniPure F(ab′)₂ Fragment Goat Anti-Human IgG, Fey fragment specific (Jackson Immuno Research, Cat #109-006-008) in PBS and incubated overnight at 4° C. Plates were washed 4 times with wash buffer (PBS+0.05% Tween-20, PBST) and then blocked with 200 μL/well blocking buffer (5% w/v non-fatty milk in PBST) for 2 hours at 37° C. […] After the final wash, the plates were incubated with 100 μL/well TMB (Innoreagents). The reaction was stopped 15 minutes later at room temperature with 50 μL/well 1M H₂SO₄, and the absorbance of each well was read on a microplate reader using dual wavelength mode with 450 nm for TMB and 630 nm as the reference wavelength. The OD (450-630) values were plotted against antibody concentration. Data was analyzed using Graphpad Prism and EC₅₀ values were reported.

[13] = biological target: T3, recombinant human TSLP-his; test: as above; remark: listed apart in the source
Method: as §5

- Inhibition on IL4 induced STAT6 phosphorylation (IC50, nM) [1]: 0.00473 nM
- Inhibition on IL13 induced STAT6 phosphorylation (IC50, nM) [1]: 0.0262 nM
- EC50 [2]: 0.128 nM
- IC50 [3]: 0.102 nM
- EC50 [4]: 0.015 nM
- Kd [5]: 0.196 nM
- koff [5]: 5.58e-05 s⁻¹
- kon [5]: 285000 M⁻¹ s⁻¹
- IC50 [6]: 0.22 nM
- IC50 [7]: 0.254 nM
B1: Dupilumab (antibody, V domains shown)
VH: EVQLVESGGGLEQPGGSLRLSCAGSGFTFRDYAMTWVRQAPGKGLEWVSSISGSGGNTYYADSVKGRFTISRDNSKNTLYLQMNSLRAEDTAVYYCAKDRLSITIRPRYYGLDVWGQGTTVTVSS
VL: DIVMTQSPLSLPVTPGEPASISCRSSQSLLYSIGYNYLDWYLQKSGQSPQLLIYLGSNRASGVPDRFSGSGSGTDFTLKISRVEAEDVGFYYCMQALQTPYTFGQGTKLEIKR

- Inhibition on IL4 induced STAT6 phosphorylation (IC50, nM) [1]: 0.015 nM
- Inhibition on IL13 induced STAT6 phosphorylation (IC50, nM) [1]: 0.033 nM
- EC50 [8]: ~0.161 nM
- IC50 [9]: 0.107 nM
- EC50 [10]: 0.0225 nM
- IC50 [6]: 0.266 nM
- IC50 [7]: 0.364 nM
B2: huC2C1A1A1-V15(IgG4) (antibody)
heavy: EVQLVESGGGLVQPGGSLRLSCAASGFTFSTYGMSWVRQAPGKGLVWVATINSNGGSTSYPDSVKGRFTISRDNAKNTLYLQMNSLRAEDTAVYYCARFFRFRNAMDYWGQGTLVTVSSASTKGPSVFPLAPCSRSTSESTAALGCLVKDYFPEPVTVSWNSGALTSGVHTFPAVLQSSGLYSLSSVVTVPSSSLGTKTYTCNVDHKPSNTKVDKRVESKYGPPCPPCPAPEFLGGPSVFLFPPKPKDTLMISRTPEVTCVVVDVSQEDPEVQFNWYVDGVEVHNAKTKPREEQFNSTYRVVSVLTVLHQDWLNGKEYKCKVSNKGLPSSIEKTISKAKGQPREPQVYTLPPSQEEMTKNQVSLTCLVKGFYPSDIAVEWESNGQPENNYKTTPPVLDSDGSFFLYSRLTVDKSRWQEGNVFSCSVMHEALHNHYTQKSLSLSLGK
light: DIQMTQSPSSLSASVGDRVTITCRTSENIYSYLAWYQQKPGKAPKFLVYNAKTLAEGVPSRFSGSGSGTDFTLTISSLQPEDFATYYCQHYYGPPTWTFGQGTKVEIKRTVAAPSVFIFPPSDEQLKSGTASVVCLLNNFYPREAKVQWKVDNALQSGNSQESVTEQDSKDSTYSLSSTLTLSKADYEKHKVYACEVTHQGLSSPVTKSFNRGEC
notes: also called anti-IL4R huC2C1A1A1-V15

- Kd [11]: < 0.0157 nM
- koff [11]: < 1e-05 s⁻¹
- kon [11]: 636000 M⁻¹ s⁻¹
- EC50 [12]: 0.0487 nM
- EC50 [13]: 0.0511 nM
B3: hu1C5F12E9-V8(IgG1) (antibody)
heavy: QVQLVQSGAEVKKPGASVKVSCKASGYTFTTYWMHWVRQAPGQGLEWMGVIDPSDSDTTYNQKFKGRVTMTRDTSTSTVYMELSSLRSEDTAVYYCTRSLDGYYDYWGQGTLVTVSSASTKGPSVFPLAPSSKSTSGGTAALGCLVKDYFPEPVTVSWNSGALTSGVHTFPAVLQSSGLYSLSSVVTVPSSSLGTQTYICNVNHKPSNTKVDKKVEPKSCDKTHTCPPCPAPEAQGGPSVFLFPPKPKDTLYITREPEVTCVVVDVSHEDPEVKFNWYVDGVEVHNAKTKPREEQYNSTYRVVSVLTVLHQDWLNGKEYKCQVSNKALPAPIEKTISKAKGQPREPQVYTLPPSRDELTKNQVSLTCLVKGFYPSDIAVEWESNGQPENNYKTTPPVLDSDGSFFLYSKLTVDKSRWQQGNVFSCSVMHEALHNHYTQKSLSLSPG
light: DIQMTQSPSSLSASVGDRVTITCRPTENIYSYLAWYQQKPGKAPKLLIYFARTLAEGVPSRFSGSGSGTDFTLTISSLQPEDFATYYCQHHYGTPWTFGGGTKVEIKRTVAAPSVFIFPPSDEQLKSGTASVVCLLNNFYPREAKVQWKVDNALQSGNSQESVTEQDSKDSTYSLSSTLTLSKADYEKHKVYACEVTHQGLSSPVTKSFNRGEC
notes: Monospecific control, full-length IgG1; also called anti-TSLP hu1C5F12E9-V8
